For test [1], the target named is human PD-L1 on PD-L1 positive Raji cells (human, UniProt Q9NZQ7 19-290). The test can be described thus: flow cytometry cell binding. Background: In flow cytometry, cells or beads pass a laser one at a time.
Test [2] has as its target human PD-L1 protein (soluble) (human, UniProt Q9NZQ7 19-238). The test can be described thus: ELISA.
Test [3] addresses T1, CD73 on the surface of A375 cells (UniProt P21589 27-549).
T1 chain: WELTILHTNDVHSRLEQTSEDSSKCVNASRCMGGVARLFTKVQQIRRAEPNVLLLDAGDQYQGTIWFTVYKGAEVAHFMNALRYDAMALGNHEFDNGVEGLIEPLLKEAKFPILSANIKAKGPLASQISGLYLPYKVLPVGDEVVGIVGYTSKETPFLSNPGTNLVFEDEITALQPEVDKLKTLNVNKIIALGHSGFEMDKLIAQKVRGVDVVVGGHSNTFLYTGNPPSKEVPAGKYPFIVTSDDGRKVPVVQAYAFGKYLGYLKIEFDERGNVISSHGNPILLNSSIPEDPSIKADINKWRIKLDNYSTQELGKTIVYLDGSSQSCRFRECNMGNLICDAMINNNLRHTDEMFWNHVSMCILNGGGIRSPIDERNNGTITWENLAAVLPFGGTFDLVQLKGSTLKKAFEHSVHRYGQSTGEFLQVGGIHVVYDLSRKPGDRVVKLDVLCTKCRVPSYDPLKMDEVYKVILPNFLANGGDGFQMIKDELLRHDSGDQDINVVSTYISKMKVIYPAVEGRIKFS
The test is described as follows: flow cytometry cell binding.

Test [4] addresses T2, human CD73 protein (soluble) (human, UniProt P21589 27-549).
T2 chain: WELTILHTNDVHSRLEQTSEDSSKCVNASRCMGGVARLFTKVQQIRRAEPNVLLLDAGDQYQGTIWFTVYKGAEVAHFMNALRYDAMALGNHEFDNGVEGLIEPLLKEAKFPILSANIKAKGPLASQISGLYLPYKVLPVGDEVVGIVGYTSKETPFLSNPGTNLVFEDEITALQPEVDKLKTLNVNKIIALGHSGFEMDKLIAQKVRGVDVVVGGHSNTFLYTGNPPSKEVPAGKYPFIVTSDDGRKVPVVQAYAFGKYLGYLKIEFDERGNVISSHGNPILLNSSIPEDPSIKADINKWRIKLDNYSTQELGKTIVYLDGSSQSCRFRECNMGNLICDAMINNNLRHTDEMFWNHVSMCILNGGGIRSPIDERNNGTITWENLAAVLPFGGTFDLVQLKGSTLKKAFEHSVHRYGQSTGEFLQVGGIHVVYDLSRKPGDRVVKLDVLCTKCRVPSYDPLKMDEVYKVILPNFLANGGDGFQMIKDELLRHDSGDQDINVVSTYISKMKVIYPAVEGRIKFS
The test is described as follows: ELISA. For orientation: An ELISA detects its analyte on a solid surface through an enzyme-linked reagent.

human PD-L1 on PD-L1 positive Raji cells, sequence (Q9NZQ7 19-290): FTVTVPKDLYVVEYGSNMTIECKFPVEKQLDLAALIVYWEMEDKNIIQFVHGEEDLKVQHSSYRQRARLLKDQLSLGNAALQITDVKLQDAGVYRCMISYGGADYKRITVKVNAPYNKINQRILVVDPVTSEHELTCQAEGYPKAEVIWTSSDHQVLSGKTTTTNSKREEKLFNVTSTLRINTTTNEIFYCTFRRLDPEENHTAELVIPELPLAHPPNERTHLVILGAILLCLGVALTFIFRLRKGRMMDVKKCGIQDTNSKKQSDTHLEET
human PD-L1 protein (soluble), sequence (Q9NZQ7 19-238): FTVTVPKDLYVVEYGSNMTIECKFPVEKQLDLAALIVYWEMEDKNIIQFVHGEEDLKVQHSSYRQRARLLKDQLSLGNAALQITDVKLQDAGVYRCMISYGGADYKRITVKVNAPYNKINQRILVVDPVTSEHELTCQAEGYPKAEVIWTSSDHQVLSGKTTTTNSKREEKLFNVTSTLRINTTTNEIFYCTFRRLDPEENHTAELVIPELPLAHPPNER

B1: H12(PDL1) (monospecific anti-PD-L1 antibody with the H12 VH and H12 VL) (antibody, V domains shown)
VH: EVQLVESGGGLVQPGGSLRLSCAASGFTFSSYDMSWVRQAPGKSLEWVATISDAGGYIYYRDSVKGRFTISRDNAKNSLYLQMNSLRDEDTAVYICARELPWRYALDYWGQGTTVTVSS
VL: DIQMTQSPSSLSASVGDRVTITCKASQDVTPAVAWYQQKPGKAPKLLIYSTSSRYTGVPSRFSGSGSGTDFTFTISSLQPEDIATYYCQQHYTTPLTFGQGTKLEIK
For B1, the EC50 is 0.0237 nM in test [1] and 0.00948 nM in test [2].

B2: hu309 (monospecific anti-CD73 antibody with the 309 VH and 309 VL) (antibody, V domains shown)
VH: EVQLQESGPGLVKPSETLSLTCAVSGYSITSGYYWNWIRQPPGKKLEWMGYINYGGSNGYNPSLKSRITISRDTSKNQFSLKLSSVTAADTAVYYCARDYDAYYEALDDWGQGTTVTVSS
VL: EIVLSQSPATLSLSPGERATLSCRASSRVNYMHWYQQKPGQSPRPWISATSNLASGVPARFSGSGSGTSYTLTISSLEPEDFAVYYCQQWSSNPPTFGGGTKVEIK
In the case of B2, the EC50 came out at 2.06 nM in test [3] and 0.0575 nM in test [4].

B3: anti-CD73/PD-L1 bispecific antibody 309-H12 (structure A of FIG. 1) (bispecific antibody)
heavy: not shown
light: EIVLSQSPATLSLSPGERATLSCRASSRVNYMHWYQQKPGQSPRPWISATSNLASGVPARFSGSGSGTSYTLTISSLEPEDFAVYYCQQWSSNPPTFGGGTKVEIKRTVAAPSVFIFPPSDEQLKSGTASVVCLLNNFYPREAKVQWKVDNALQSGNSQESVTEQDSKDSTYSLSSTLTLSKADYEKHKVYACEVTHQGLSSPVTKSFNRGEC
For B3, the EC50 was found to be 0.255 nM in test [1], 2.24 nM in test [3], 0.0715 nM in test [4] and 0.179 nM in test [2].

In general, EC50 refers to the concentration at which the effect is half-maximal.

The record behind these values is US20200347146A1 (published 2020).
